Data taken from patent US20220119534A1 (DRAGONFLY THERAPEUTICS, published 2022).
Values joined by “and” are separate entries in the source; they are usually repeats but may differ in a detail not shown here. Equal entries are not always repeated. One block for each binder: values may come before it.

Experiments:
[1] = molecular target: T1, Human CLEC12A expressed on cells (Ba/F3-hCLEC12A, PL21, HL60) (human, UniProt Q5QGZ9 1-265); assay: cell-based or functional assay
T1 sequence: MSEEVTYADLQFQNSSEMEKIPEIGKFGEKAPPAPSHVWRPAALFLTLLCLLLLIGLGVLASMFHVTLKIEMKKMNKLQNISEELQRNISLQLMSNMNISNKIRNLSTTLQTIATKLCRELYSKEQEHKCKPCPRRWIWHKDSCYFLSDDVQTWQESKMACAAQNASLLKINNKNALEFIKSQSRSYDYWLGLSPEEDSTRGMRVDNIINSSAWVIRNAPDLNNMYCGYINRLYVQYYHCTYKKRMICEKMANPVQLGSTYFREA

[2] = molecular target: T1, Human CLEC12A expressed on cells …; assay: cell-based or functional assay; remark: listed apart in the source
[3] = molecular target: T1, Human CLEC12A expressed on cells …; assay: cell-based or functional assay; remark: listed apart in the source
Human CD64 (FcγRI) = molecular target: T2, Human CD64 (FcγRI) (human, UniProt P12314 16-288, biotinylated); assay: SPR 25C, biotinylated hCD64 captured on CAP chip
T2 construct: Bought recombinant receptor; also called hFcγRI; Human FcγRI

[4] = molecular target: T3, human CLEC12A on cells (HL60, PL21, Ba/F3-hCLEC12A) (human, UniProt Q5QGZ9 1-265); assay: flow cytometry, HL60 cells
T3 construct: Endogenous on the AML lines HL60 and PL21; brought into mouse Ba/F3 cells by retroviral transduction; The cell line stands under assay; also called CLL-1
T3 sequence: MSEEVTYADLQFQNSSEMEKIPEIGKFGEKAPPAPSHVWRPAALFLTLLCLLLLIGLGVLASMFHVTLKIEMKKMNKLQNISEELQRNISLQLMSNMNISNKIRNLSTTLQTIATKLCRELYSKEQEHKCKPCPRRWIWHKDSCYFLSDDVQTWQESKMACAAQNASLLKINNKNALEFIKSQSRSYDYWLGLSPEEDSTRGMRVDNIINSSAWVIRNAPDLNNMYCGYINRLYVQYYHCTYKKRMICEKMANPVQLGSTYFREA

Human CLEC12A-His = molecular target: T4, Human CLEC12A-His (human, UniProt Q5QGZ9 65-265); assay: SPR; control sample (HST pH 6.0 study)
T4 construct: Recombinant soluble protein made in house; also called hCLEC12A-His; hCLEC12A; not shown: His tag
T4 sequence: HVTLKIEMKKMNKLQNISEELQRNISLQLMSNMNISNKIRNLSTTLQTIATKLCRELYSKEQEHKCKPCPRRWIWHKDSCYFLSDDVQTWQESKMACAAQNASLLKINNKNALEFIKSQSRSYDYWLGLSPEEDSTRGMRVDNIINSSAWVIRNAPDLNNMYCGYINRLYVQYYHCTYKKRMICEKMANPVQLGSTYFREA

mFc-hNKG2D [5] = molecular target: T5, mFc-hNKG2D (human, UniProt P26718 73-216); assay: SPR; control sample (HST pH 6.0 study)
T5 construct: extracellular domain; Recombinant mFc-tagged NKG2D dimer, made in house; also called human NKG2D; not shown: mouse Fc tag
T5 sequence (looked up): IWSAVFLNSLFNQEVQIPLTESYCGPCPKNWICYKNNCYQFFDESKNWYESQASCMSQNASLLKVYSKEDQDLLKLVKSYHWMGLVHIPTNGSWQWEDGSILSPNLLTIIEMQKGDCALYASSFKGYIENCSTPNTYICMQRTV

Human CD16a V158 [6] = molecular target: T6, Human CD16a V158 (human, UniProt P08637 17-208, biotinylated); assay: SPR; control sample (HST pH 6.0 study)
T6 construct: Bought recombinant receptor; also called hCD16a (V158); hFcγRIIIa V158

mFc-hNKG2D [7] = molecular target: T5, mFc-hNKG2D; assay: SPR, 37 C, mFc-hNKG2D captured, steady state fit; average
Human CD16a V158 [8] = molecular target: T6, Human CD16a V158; assay: SPR, hCD16a V158 captured, kinetic fit; average for AB0192
[9] = molecular target: T7, recombinant human CD32a H131 (human, UniProt P12318 36-218, limits assumed, biotinylated); assay: SPR 25C, steady state, average
T7 construct: also called FcγRIIa H131
T7 sequence (looked up): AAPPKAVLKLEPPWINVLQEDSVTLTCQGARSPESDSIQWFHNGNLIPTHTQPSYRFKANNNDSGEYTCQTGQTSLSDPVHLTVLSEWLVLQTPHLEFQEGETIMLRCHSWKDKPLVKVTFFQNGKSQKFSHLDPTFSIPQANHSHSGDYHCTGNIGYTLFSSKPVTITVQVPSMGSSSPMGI

recombinant human CD16b = molecular target: T8, recombinant human CD16b (human, UniProt O75015 17-200, limits assumed, biotinylated); assay: SPR 25C, steady state, average
T8 construct: also called FcγRIIIb

[10] = molecular target: T9, recombinant cynomolgus FcRn (cynomolgus monkey, UniProt Q8SPV9 24-297; Q8SPW0 21-119); assay: SPR 25C, pH 6.0, steady state; pH 6.0; fourth replicate
T9 construct: also called cFcRn; cyno FcRn
T9 sequence (Q8SPV9 24-297 limits assumed, chain 1 of 2): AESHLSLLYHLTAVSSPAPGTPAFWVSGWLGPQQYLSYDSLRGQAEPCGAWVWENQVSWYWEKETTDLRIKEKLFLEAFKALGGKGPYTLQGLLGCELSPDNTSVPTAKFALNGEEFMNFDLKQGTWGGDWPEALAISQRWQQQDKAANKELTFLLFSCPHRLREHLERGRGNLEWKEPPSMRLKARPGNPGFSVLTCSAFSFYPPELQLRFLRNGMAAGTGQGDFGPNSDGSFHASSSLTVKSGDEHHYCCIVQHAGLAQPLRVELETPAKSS
T9 sequence (Q8SPW0 21-119 limits assumed, chain 2 of 2): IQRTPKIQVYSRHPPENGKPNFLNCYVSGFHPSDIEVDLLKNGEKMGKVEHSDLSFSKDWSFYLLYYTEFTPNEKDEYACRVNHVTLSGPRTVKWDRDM

T2 sequence (P12314 16-288 limits assumed): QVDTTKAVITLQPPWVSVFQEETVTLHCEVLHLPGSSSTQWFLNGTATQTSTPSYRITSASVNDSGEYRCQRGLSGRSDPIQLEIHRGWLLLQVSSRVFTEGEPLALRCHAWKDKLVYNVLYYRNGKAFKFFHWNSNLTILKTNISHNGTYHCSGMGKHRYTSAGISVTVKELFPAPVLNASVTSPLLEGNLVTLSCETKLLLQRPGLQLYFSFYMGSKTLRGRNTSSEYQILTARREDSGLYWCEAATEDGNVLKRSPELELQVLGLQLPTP
T6 sequence (P08637 17-208 F176V limits assumed): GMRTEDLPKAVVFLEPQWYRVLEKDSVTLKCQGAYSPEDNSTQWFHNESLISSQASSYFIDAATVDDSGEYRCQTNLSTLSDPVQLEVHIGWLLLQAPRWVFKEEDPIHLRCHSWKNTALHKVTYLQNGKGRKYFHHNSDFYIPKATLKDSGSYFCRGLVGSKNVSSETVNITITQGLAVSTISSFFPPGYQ
T8 sequence (O75015 17-200 limits assumed): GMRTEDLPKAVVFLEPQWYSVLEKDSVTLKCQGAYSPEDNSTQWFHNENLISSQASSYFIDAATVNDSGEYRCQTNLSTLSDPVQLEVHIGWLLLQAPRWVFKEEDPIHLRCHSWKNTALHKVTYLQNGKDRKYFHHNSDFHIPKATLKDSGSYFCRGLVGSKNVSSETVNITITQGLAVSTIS

EC50, NK cell induction of IFNγ and CD107a in co-culture with HL60 cells (mean of three donors) [3]: 0.05 nM
Kd (Human CD64 (FcγRI)): 6.4 nM and 4.7 nM and 4.1 nM and 5.2 nM
koff (Human CD64 (FcγRI)): 0.00018 s⁻¹ and 0.00022 s⁻¹ and 0.00019 s⁻¹ and 0.00024 s⁻¹
kon (Human CD64 (FcγRI)): 44000 M⁻¹ s⁻¹ and 46000 M⁻¹ s⁻¹
B1: AB0089 TriNKET (bispecific antibody, human IgG1, kappa)
chain: QLQLQESGPGLVKPSETLSLTCTVSGFSLTNYGLHWIRQPPGKCLEWIGVIWVGGATDYNPSLKSRVTISVDTSKNQFSLKLSSVQAADTAVYYCAKGDYGDTLDYWGQGTLVTVSSGGGGSGGGGSGGGGSGGGGSDIQMTQSPSSLSASVGDRVTITCHASQNINFWLSWYQQKPGKAPKLLIYEASNLHTGVPSRFSGSGSGTDFTLTISSLQPEDFATYYCQQSHSYPLTFGCGTKLEIKGSDKTHTCPPCPAPELLGGPSVFLFPPKPKDTLMISRTPEVTCVVVDVSHEDPEVKFNWYVDGVEVHNAKTKPREEQYNSTYRVVSVLTVLHQDWLNGKEYKCKVSNKALPAPIEKTISKAKGQPREPRVYTLPPCRDELTKNQVSLTCLVKGFYPSDIAVEWESNGQPENNYKTTPPVLVSDGSFTLYSKLTVDKSRWQQGNVFSCSVMHEALHNHYTQKSLSLSPG
heavy: EVQLVESGGGLVKPGGSLRLSCAASGFTFSSYSMNWVRQAPGKGLEWVSSISSSSSYIYYADSVKGRFTISRDNAKNSLYLQMNSLRAEDTAVYYCARGAPIGAAAGWFDPWGQGTLVTVSSASTKGPSVFPLAPSSKSTSGGTAALGCLVKDYFPEPVTVSWNSGALTSGVHTFPAVLQSSGLYSLSSVVTVPSSSLGTQTYICNVNHKPSNTKVDKKVEPKSCDKTHTCPPCPAPELLGGPSVFLFPPKPKDTLMISRTPEVTCVVVDVSHEDPEVKFNWYVDGVEVHNAKTKPREEQYNSTYRVVSVLTVLHQDWLNGKEYKCKVSNKALPAPIEKTISKAKGQPREPQVCTLPPSRDELTENQVSLTCLVKGFYPSDIAVEWESNGQPENNYKTTPPVLDSDGSFFLYSWLTVDKSRWQQGNVFSCSVMHEALHNHYTQKSLSLSPG
light: DIQMTQSPSSVSASVGDRVTITCRASQGISSWLAWYQQKPGKAPKLLIYAASSLQSGVPSRFSGSGSGTDFTLTISSLQPEDFATYYCQQGVSFPRTFGGGTKVEIKRTVAAPSVFIFPPSDEQLKSGTASVVCLLNNFYPREAKVQWKVDNALQSGNSQESVTEQDSKDSTYSLSSTLTLSKADYEKHKVYACEVTHQGLSSPVTKSFNRGEC
notes: F3' format heterodimer of three chains; human IgG1 Fc with EW-RVT and Y349C/S354C mutations; also called AB0089 Lot AB0089-002; CLEC12A TriNKET AB0089
EC50, KHYG1-CD16aV cytotoxicity assay; after 4 wks 40C in CST pH 7.0 [1]: 0.16 nM
EC50, KHYG1-CD16aV cytotoxicity assay; control sample [1]: 0.13 nM
EC50, KHYG-1-CD16aV cytotoxicity assay, HL-60 cells; after low pH hold [2]: 0.11 nM
EC50, KHYG-1-CD16aV cytotoxicity assay, HL-60 cells; control sample [2]: 0.11 nM

EC50 [4]: 0.61 nM
FOB (fold over background) [4]: 42 fold
Kd (Human CLEC12A-His): 1.81 nM
koff (Human CLEC12A-His): 0.0014 s⁻¹
kon (Human CLEC12A-His): 776000 M⁻¹ s⁻¹
Kd (mFc-hNKG2D [5]): 588 nM
koff (mFc-hNKG2D [5]): 0.122 s⁻¹
kon (mFc-hNKG2D [5]): 208000 M⁻¹ s⁻¹
Kd (Human CD16a V158 [6]): 171 nM
koff (Human CD16a V158 [6]): 0.0199 s⁻¹
kon (Human CD16a V158 [6]): 117000 M⁻¹ s⁻¹
Kd (mFc-hNKG2D [7]): 781 nM
Kd (Human CD16a V158 [8]): 178 nM
koff (Human CD16a V158 [8]): 0.0199 s⁻¹
kon (Human CD16a V158 [8]): 112000 M⁻¹ s⁻¹
B2: AB0192 TriNKET (other)
chain: EVQLVESGGGVVQPGGSLRLSCAASGFTFNAFGMHWVRQAPGKCLEWVAFISSGSTSIYYANTVKGRFTISRDNSKNTLYLQMNSLRAEDTAVYYCARDGYPTGGAMDYWGQGTSVTVSSGGGGSGGGGSGGGGSGGGGSDIQMTQSPSSLSASVGDRVTITCKASQDIYNYLSWFQQKPGKAPKPLIYRANILVSGVPSRFSGSGSGQDYTFTISSLQPEDIATYYCLQFDAFPFTFGCGTKLEIKGSDKTHTCPPCPAPELLGGPSVFLFPPKPKDTLMISRTPEVTCVVVDVSHEDPEVKFNWYVDGVEVHNAKTKPREEQYNSTYRVVSVLTVLHQDWLNGKEYKCKVSNKALPAPIEKTISKAKGQPREPRVYTLPPCRDELTKNQVSLTCLVKGFYPSDIAVEWESNGQPENNYKTTPPVLVSDGSFTLYSKLTVDKSRWQQGNVFSCSVMHEALHNHYTQKSLSLSPG
heavy: EVQLVESGGGLVKPGGSLRLSCAASGFTFSSYSMNWVRQAPGKGLEWVSSISSSSSYIYYADSVKGRFTISRDNAKNSLYLQMNSLRAEDTAVYYCARGAPIGAAAGWFDPWGQGTLVTVSSASTKGPSVFPLAPSSKSTSGGTAALGCLVKDYFPEPVTVSWNSGALTSGVHTFPAVLQSSGLYSLSSVVTVPSSSLGTQTYICNVNHKPSNTKVDKKVEPKSCDKTHTCPPCPAPELLGGPSVFLFPPKPKDTLMISRTPEVTCVVVDVSHEDPEVKFNWYVDGVEVHNAKTKPREEQYNSTYRVVSVLTVLHQDWLNGKEYKCKVSNKALPAPIEKTISKAKGQPREPQVCTLPPSRDELTENQVSLTCLVKGFYPSDIAVEWESNGQPENNYKTTPPVLDSDGSFFLYSWLTVDKSRWQQGNVFSCSVMHEALHNHYTQKSLSLSPG
light: DIQMTQSPSSVSASVGDRVTITCRASQGISSWLAWYQQKPGKAPKLLIYAASSLQSGVPSRFSGSGSGTDFTLTISSLQPEDFATYYCQQGVSFPRTFGGGTKVEIKRTVAAPSVFIFPPSDEQLKSGTASVVCLLNNFYPREAKVQWKVDNALQSGNSQESVTEQDSKDSTYSLSSTLTLSKADYEKHKVYACEVTHQGLSSPVTKSFNRGEC
notes: the condition stands under assay; also called AB0192 Lot AB0192-005

Kd [9]: 900 nM
Kd (recombinant human CD16b): 7500 nM
Kd [10]: 1500 nM
B3: F3'-1602 TriNKET (other)
chain: QLQLQESGPGLVKPSETLSLTCTVSGFSLTNYGLHWIRQPPGKCLEWIGVIWSGGKTDYNPSLKSRVTISKDTSKNQFSLKLSSVQAADTAVYYCAKYDYDDSLDYWGQGTLVTVSSGGGGSGGGGSGGGGSGGGGSDIQMTQSPSSLSASVGDRVTITCHASQNINFWLSWYQQKPGKAPKLLIYEASNLHTGVPSRFSGSGSGTRFTLTISSLQPEDIATYYCQQSHSYPLTFGCGTKLEIKGSDKTHTCPPCPAPELLGGPSVFLFPPKPKDTLMISRTPEVTCVVVDVSHEDPEVKFNWYVDGVEVHNAKTKPREEQYNSTYRVVSVLTVLHQDWLNGKEYKCKVSNKALPAPIEKTISKAKGQPREPRVYTLPPCRDELTKNQVSLTCLVKGFYPSDIAVEWESNGQPENNYKTTPPVLVSDGSFTLYSKLTVDKSRWQQGNVFSCSVMHEALHNHYTQKSLSLSPG
heavy: EVQLVESGGGLVKPGGSLRLSCAASGFTFSSYSMNWVRQAPGKGLEWVSSISSSSSYIYYADSVKGRFTISRDNAKNSLYLQMNSLRAEDTAVYYCARGAPIGAAAGWFDPWGQGTLVTVSSASTKGPSVFPLAPSSKSTSGGTAALGCLVKDYFPEPVTVSWNSGALTSGVHTFPAVLQSSGLYSLSSVVTVPSSSLGTQTYICNVNHKPSNTKVDKKVEPKSCDKTHTCPPCPAPELLGGPSVFLFPPKPKDTLMISRTPEVTCVVVDVSHEDPEVKFNWYVDGVEVHNAKTKPREEQYNSTYRVVSVLTVLHQDWLNGKEYKCKVSNKALPAPIEKTISKAKGQPREPQVCTLPPSRDELTENQVSLTCLVKGFYPSDIAVEWESNGQPENNYKTTPPVLDSDGSFFLYSWLTVDKSRWQQGNVFSCSVMHEALHNHYTQKSLSLSPG
light: DIQMTQSPSSVSASVGDRVTITCRASQGISSWLAWYQQKPGKAPKLLIYAASSLQSGVPSRFSGSGSGTDFTLTISSLQPEDFATYYCQQGVSFPRTFGGGTKVEIKRTVAAPSVFIFPPSDEQLKSGTASVVCLLNNFYPREAKVQWKVDNALQSGNSQESVTEQDSKDSTYSLSSTLTLSKADYEKHKVYACEVTHQGLSSPVTKSFNRGEC
notes: CLEC12A scFv-Fc, NKG2D A49MI Fab-Fc, human IgG1 Fc; also called AB0237
